The values that follow come from patent US20080207503A1, “Composition and Treatment Methods for Coronary Artery Disease” (priority 2005, published 2008).

This test can be described thus: Sphingomyelinase treatment of ICP (hydrolysis of SPM, TLC, cholesterol release). In kind it is biochemical, human. How it is done: FIG. 7A show the effect of hydrolyzing SPM on ICP by sphingomyelinase on the ICP SPM to PC ratio. Following incubation of ICP in 0.25 M Tris buffer containing 20 mM MgCl2 with 50 units of bacterial sphingomyelinase for 6 hrs at 37° C., the reaction of sphingomyelinase was stopped by adding EDTA and a subsequent wash. A change in the SPM to PC ratio of insoluble ICP was examined by TLC. SPM to PC ratios of control ICP (top) and sphingomyelinase-treated ICP (bottom) were 1.69 and 0.49, respectively.
FIG. 7B show the effect of hydrolyzing SPM on ICP by sphingomyelinase on the release of ICP cholesterol by apo HDL or R-HDL. ICP sphingomyelinase treatment was as described in FIG. 7A. Release of cholesterol from control or sphingomyelinase-treated ICP was then measured after incubation of ICP at ICP FC to apo HDL ratio=1:2.5 or ICP FC to R-HDL PC ratio of 1:10.
Treatment of ICP with bacterial sphingomyelinase hydrolyzed 70% of ICP SPM. […] Rather, the release of ICP cholesterol into TBS, apo HDL, or R-HDL was reduced by prior sphingomyelinase treatment of ICP (FIG. 7B). As a model of ICP, artificial multilamellar SPM vesicles enriched with FC (SPM/FC ratio=1) or containing no FC (control SPM) were incubated with R-HDL. Then, PC and SPM content in residual insoluble multilamellar SPM vesicles and solubilized vesicles were determined by TLC (FIG. 7C). After incubation of FC-enriched multilamellar SPM vesicles (SPM/FC+, FIG. 7C, lane 1) with R-HDL (lane 4), insoluble multilamellar vesicles contained not only SPM but also PC (lane 2), while the soluble fraction contained only PC (lane 3). In contrast, following incubation of FC-free multilamellar SPM vesicles (SPM/FC−, lane 5) with R-HDL (lane 8), the residual insoluble multilamellar vesicles contained SPM and no PC (lane 6), and the upper soluble fraction contained both SPM and PC (lane 7).

B1: bacterial sphingomyelinase: Bacterial (Bacilus cereus) sphingomyelinase from Sigma (protein, UniProt P09599 28-333, looked up)
Sphingomyelinase C: DTSTDQNNTLKVMTHNVYMLSTNLYPNWGQSQRADLIGAADYIKNQDVVILNEVFDNSASDRLLGNLKKEYPNQTAVLGRSNGNEWDKTLGSYSSSTPEDGGVAIVSKWPIVEKIQYVFAKGCGPDNLSNKGFVYTKIKKNDRFVHVIGTHLQAEDSMCGKTSPASVRTNQLKEIQDFIKNKNIPNDEYVLFGGDMNVNKINAENNSDSEYASMFKTLHASIPSYTGHTATWDATTNSIAKYNFPDSPAEYLDYIIASKDHANPSFIENKVLQPKSPQWTVTSWLKKYTYDDYSDHYPVAATISMK
As for B1, the “ICP SPM hydrolyzed” value (50 units bacterial sphingomyelinase, 6 hrs, 37° C.) came out at 70%. The “release of ICP cholesterol into TBS, apo HDL or R-HDL after prior sphingomyelinase treatment (in words)” value (FIG. 7B) was “reduced”. The “ICP SPM/PC ratio after sphingomyelinase treatment” value (control ICP 1.69 / 1.6, TLC) amounted to 0.49.
